Literature values in US20250312434A1, “LIPOPOLYSACCHARIDE (LPS) DEFICIENT ACINETOBACTER BAUMANNII M[…]” (VAXDYN S.L., priority 2021, published 2025).

Legend:
P. aeruginosa [1] = conditions: 4 intraperitoneal doses of 50 μg
[2] = system: P. aeruginosa strain PAO1; conditions: Balb/c female mice, 4 subcutaneous doses of 50ug; intranasal PAO1
P. aeruginosa strain PAK = conditions: Balb/c female mice, 4 subcutaneous doses of 50ug; intranasal PAK
P. aeruginosa [3] = conditions: 2 intraperitoneal doses of 10 ug

Molecule: purified OprI: P. aeruginosa outer membrane lipoprotein OprI, purified
- LD50 in immunized versus not immunized animals (P. aeruginosa [1]): up to 35 fold

B1: rOprF: recombinant full-length OprF from P. aeruginosa expressed in Escherichia coli (protein, UniProt P13794 1-350, looked up)
chain: MKLKNTLGVVIGSLVAASAMNAFAQGQNSVEIEAFGKRYFTDSVRNMKNADLYGGSIGYFLTDDVELALSYGEYHDVRGTYETGNKKVHGNLTSLDAIYHFGTPGVGLRPYVSAGLAHQNITNINSDSQGRQQMTMANIGAGLKYYFTENFFAKASLDGQYGLEKRDNGHQGEWMAGLGVGFNFGGSKAAPAPEPVADVCSDSDNDGVCDNVDKCPDTPANVTVDANGCPAVAEVVRVQLDVKFDFDKSKVKENSYADIKNLADFMKQYPSTSTTVEGHTDSVGTDAYNQKLSERRANAVRDVLVNEYGVEGGRVNAVGYGESRPVADNATAEGRAINRRVEAEVEAEAK
modifications: full-length
notes: recombinant full-length OprF from P. aeruginosa expressed in Escherichia coli
- survival at 7 days [2]: 50%
- survival at 7 days (P. aeruginosa strain PAK): 60%

B2: purified OprF: purified OprF from P. aeruginosa PAO1 (protein, UniProt P13794 25-350, looked up)
Outer membrane porin F: QGQNSVEIEAFGKRYFTDSVRNMKNADLYGGSIGYFLTDDVELALSYGEYHDVRGTYETGNKKVHGNLTSLDAIYHFGTPGVGLRPYVSAGLAHQNITNINSDSQGRQQMTMANIGAGLKYYFTENFFAKASLDGQYGLEKRDNGHQGEWMAGLGVGFNFGGSKAAPAPEPVADVCSDSDNDGVCDNVDKCPDTPANVTVDANGCPAVAEVVRVQLDVKFDFDKSKVKENSYADIKNLADFMKQYPSTSTTVEGHTDSVGTDAYNQKLSERRANAVRDVLVNEYGVEGGRVNAVGYGESRPVADNATAEGRAINRRVEAEVEAEAK
- protection (P. aeruginosa [3]): up to 67%
